Source: the supplement of paper PMC9233669
Fewer inactive variants are shown than the library holds.

What was measured:
[1] = test system: biotinyl-Phe-oxazolone; assay: self-aminoacylation, catalytic enhancement (BFO) (fold over background); higher = more active; k-Seq, kA / k0A0; sequences stand for … in GGGAAUGGAUCCACAUCUACGAAUUC…UUCACUGCAGACUUGACGAAGCUG
In short: (§1)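 The uncatalyzed rate is the low-activity peak of a bimodal Gaussian fit, and catalytic enhancement is median kA divided by it. The kA values came from pseudo-first-order fits, with 1000 bootstraps, of per-sequence fraction reacted measured by streptavidin capture, triplicate qPCR and Illumina sequencing. Mutagenized RNA pools with a 21-nt variable region (0.43 μM) were reacted with each biotinyl-aminoacyl-oxazolone at 2–1250 μM in 50 μL HEPES/NaCl/KCl/MgCl2/CaCl2 buffer with 5% acetonitrile, pH 6.9–7.0, for 90 minutes at room temperature.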

[2] = test system: biotinyl-Ile-oxazolone; assay: self-aminoacylation, catalytic enhancement (BIO) (fold over background); higher = more active; k-Seq, kA / k0A0; sequences stand for … in GGGAAUGGAUCCACAUCUACGAAUUC…UUCACUGCAGACUUGACGAAGCUG
In short: as §1

[3] = test system: biotinyl-Met-oxazolone; assay: self-aminoacylation, catalytic enhancement (BMO) (fold over background); higher = more active; k-Seq, kA / k0A0; sequences stand for … in GGGAAUGGAUCCACAUCUACGAAUUC…UUCACUGCAGACUUGACGAAGCUG
In short: as §1

[4] = test system: biotinyl-Val-oxazolone; assay: self-aminoacylation, catalytic enhancement (BVO) (fold over background); higher = more active; k-Seq, kA / k0A0; sequences stand for … in GGGAAUGGAUCCACAUCUACGAAUUC…UUCACUGCAGACUUGACGAAGCUG
In short: as §1

[5] = test system: biotinyl-Leu-oxazolone; assay: self-aminoacylation, catalytic enhancement (BLO) (fold over background); higher = more active; k-Seq, kA / k0A0; sequences stand for … in GGGAAUGGAUCCACAUCUACGAAUUC…UUCACUGCAGACUUGACGAAGCUG
In short: as §1

[6] = test system: biotinyl-Trp-oxazolone; assay: self-aminoacylation, catalytic enhancement (BWO) (fold over background); higher = more active; k-Seq, kA / k0A0; sequences stand for … in GGGAAUGGAUCCACAUCUACGAAUUC…UUCACUGCAGACUUGACGAAGCUG
In short: as §1

Sequence | self-aminoacylation [1] | self-aminoacylation [2] | self-aminoacylation [3] | self-aminoacylation [4] | self-aminoacylation [5] | self-aminoacylation [6]
CCACACUUCAAGUAAUCGGGC [Fam1B.1 aminoacylation ribozyme variant] | 1.28 | 1.68 | 1.64 | 1.69 | 1.54 | 1.73
CCACACUUCAAGUAAUCGUUC [Fam1B.1 aminoacylation ribozyme variant] | 0.886 | 0.628 | 0.613 | 0.801 | 0.705 | 0.552
CCACACUUCAAGUAAUGGGUC [Fam1B.1 aminoacylation ribozyme variant] | 0.642 | 0.868 | 1.04 | 0.66 | 0.803 | 0.546
CCACACUUCAAGUUAUCGGUC [Fam1B.1 aminoacylation ribozyme variant] | 0.799 | 1.09 | 1.01 | 1.06 | 1.04 | 1.08
CCACACUUCAAUCAAACGGUC [Fam1B.1 aminoacylation ribozyme variant] | 0.747 | 0.618 | 0.543 | 0.757 | 0.575 | 0.456
CCACACUUCAAUCAAUCGGUC [Fam1B.1 aminoacylation ribozyme variant] | 42.7 | 1.1 | 1.05 | 1.17 | 1.51 | 21.8
CCACACUUCAAUCAAUCGGUG [Fam1B.1 aminoacylation ribozyme variant] | 2.64 | 2.23 | 2.66 | 1.98 | 3.6 | 2.57
CCACACUUCAAUCAAUCGUUC [Fam1B.1 aminoacylation ribozyme variant] | 1.04 | 0.622 | 0.423 | 0.607 | 0.506 | 0.469
CCACACUUCAAUCAAUCUGUC [Fam1B.1 aminoacylation ribozyme variant] | 0.748 | 0.425 | 0.429 | 0.58 | 0.343 | 0.342
CCACACUUCAAUCAAUGGGUC [Fam1B.1 aminoacylation ribozyme variant] | 0.724 | 0.801 | 0.651 | 0.724 | 0.564 | 0.467
CCACACUUCAAUCCAUCGGUC [Fam1B.1 aminoacylation ribozyme variant] | 0.794 | 0.801 | 0.824 | 0.91 | 0.676 | 0.553
CCACACUUCAAUUAAUCGGUC [Fam1B.1 aminoacylation ribozyme variant] | 26.1 | 1.01 | 0.937 | 1.06 | 1.09 | 15.6
CCACACUUCACGCAAUUGGUC [Fam1B.1 aminoacylation ribozyme variant] | 0.859 | 0.951 | 0.667 | 1.03 | 0.957 | 0.792
CCACACUUCACGCUAUCGGUC [Fam1B.1 aminoacylation ribozyme variant] | 1.09 | 1.13 | 1.03 | 1.17 | 0.971 | 0.951
CCACACUUCAGACAAUCGGUC [Fam1B.1 aminoacylation ribozyme variant] | 1.33 | 1.17 | 0.902 | 1.26 | 1.53 | 1.29
CCACACUUCAGGCAAUCGGGC [Fam1B.1 aminoacylation ribozyme variant] | 11 | 2.46 | 1.37 | 3.35 | 2.45 | 2.21
CCACACUUCAGGCAAUCGGUA [Fam1B.1 aminoacylation ribozyme variant] | 1.97 | 1.24 | 1.43 | 1.33 | 1.23 | 1.04
CCACACUUCAGGCAAUCGGUC [Fam1B.1 aminoacylation ribozyme variant] | 1.47 | 1.14 | 1.14 | 1.27 | 1.11 | 1.28
CCACACUUCAGGCAGUCGGUC [Fam1B.1 aminoacylation ribozyme variant] | 0.789 | 1.48 | 1.04 | 1.48 | 1.62 | 1.32
CCACACUUCAGUCAAUCGGUC [Fam1B.1 aminoacylation ribozyme variant] | 1.06 | 1.11 | 1.02 | 0.965 | 1.03 | 1.31
CCACACUUCAUGCAAACGGUC [Fam1B.1 aminoacylation ribozyme variant] | 0.769 | 0.809 | 0.556 | 0.774 | 0.507 | 0.512
CCACACUUCAUGCAAUAGGUC [Fam1B.1 aminoacylation ribozyme variant] | 1.03 | 0.711 | 0.582 | 0.834 | 0.637 | 0.467
CCACACUUCAUGCAAUCGAUC [Fam1B.1 aminoacylation ribozyme variant] | 0.923 | 0.552 | 0.528 | 0.721 | 0.489 | 0.336
CCACACUUCAUGCGAUCGGUC [Fam1B.1 aminoacylation ribozyme variant] | 0.762 | 1.1 | 0.828 | 1.17 | 1.12 | 0.917
CCACACUUCAUUCAAUCGGUC [Fam1B.1 aminoacylation ribozyme variant] | 0.605 | 0.806 | 0.604 | 0.744 | 0.701 | 0.495
CCACACUUCCAGCAAUCGAUC [Fam1B.1 aminoacylation ribozyme variant] | 0.92 | 0.83 | 0.673 | 0.959 | 0.579 | 0.611
